Source: the Immune Epitope Database (IEDB)

Key:
HLA-B*40:01 = assay: IEDB peptide-MHC binding, purified MHC/direct/fluorescence; filed as Kd, often an IC50 or EC50 that approximates it; ≥ and ≤ were set here for values at or beyond the usual limits of such assays; settings: source organism: Bacillus anthracis
HLA-A*03:01 = assay: as above; settings: source organism: Bacillus anthracis
HLA-B*08:01 = assay: as above; settings: source organism: Picosynechococcus sp. PCC 7002
HLA-B*07:02 = assay: as above; settings: source organism: Bacillus anthracis
HLA-A*26:03 = assay: as above
HLA-B*39:01 = assay: as above; settings: source organism: Picosynechococcus sp. PCC 7002
HLA-A*69:01 = assay: as above; settings: source organism: Bacillus anthracis
HLA-A*11:01 [1] = assay: as above; settings: source organism: Bacillus anthracis
HLA-B*15:01 = assay: as above; settings: source organism: Bacillus anthracis
HLA-A*02:01 = assay: as above; settings: source organism: Bacillus anthracis
HLA-B*57:01 [2] = assay: as above; settings: source organism: Bacillus anthracis
HLA-B*27:05 = assay: as above; settings: source organism: Bacillus anthracis
HLA-B*48:01 = assay: as above; settings: source organism: Bacillus anthracis
HLA-B*46:01 = assay: as above; settings: source organism: Bacillus anthracis
HLA-A*26:02 [3] = assay: as above; settings: source organism: Picosynechococcus sp. PCC 7002
HLA-A*01:01 [4] = assay: as above; settings: source organism: Bacillus anthracis
HLA-A*31:01 = assay: as above; settings: source organism: Bacillus anthracis
HLA-B*58:01 = assay: as above; settings: source organism: Bacillus anthracis
HLA-A*02:03 = assay: IEDB peptide-MHC binding, purified MHC/competitive/fluorescence; filed as Kd, often an IC50 or EC50 that approximates it; ≥ and ≤ were set here for values at or beyond the usual limits of such assays
HLA-B*15:17 = assay: as above
HLA-A*30:01 = assay: as above; settings: source organism: Human immunodeficiency virus 1
HLA-A*11:01 [5] = assay: as above; settings: source organism: Human immunodeficiency virus 1
HLA-A*02:06 = assay: as above; settings: source organism: Human immunodeficiency virus 1
HLA-B*57:01 [6] = assay: as above; settings: source organism: Human immunodeficiency virus 1
HLA-A*26:02 [7] = assay: as above; settings: source organism: Human immunodeficiency virus 1
HLA-A*01:01 [8] = assay: as above; settings: source organism: Human immunodeficiency virus 1
HLA-B*18:01 = assay: as above; settings: source organism: Human immunodeficiency virus 1
[9] = source organism: Bacillus anthracis str. A0488
[10] = source organism: Human immunodeficiency virus 1

DTVLFNAGL
Kd (HLA-B*40:01): ≥ 20 µM | Kd (HLA-A*03:01): ≥ 20 µM | Kd (HLA-B*08:01): ≥ 20 µM | Kd (HLA-B*07:02): ≥ 20 µM | Kd (HLA-A*26:03; source organism: Picosynechococcus sp. PCC 7002): 0.054 µM | Kd (HLA-B*39:01): ≥ 20 µM | Kd (HLA-A*69:01): ≤ 0.001 µM | Kd (HLA-A*11:01 [1]): ≥ 20 µM | Kd (HLA-B*15:01): ≥ 20 µM | Kd (HLA-A*02:01): ≥ 20 µM | Kd (HLA-B*57:01 [2]): ≥ 20 µM | Kd (HLA-B*27:05): ≥ 20 µM | Kd (HLA-B*48:01): ≥ 20 µM | Kd (HLA-B*46:01): ≥ 20 µM | Kd (HLA-A*26:02 [3]): 0.041 µM | Kd (HLA-A*01:01 [4]): ≥ 20 µM | Kd (HLA-A*31:01): ≥ 20 µM | Kd (HLA-B*58:01): ≥ 20 µM | Kd (HLA-A*02:03; [9]): ≥ 20 µM | Kd (HLA-B*15:17; [9]): ≥ 20 µM

GTIIAHGGL
Kd (HLA-A*26:03; source organism: Rickettsia prowazekii): ≥ 20 µM

KSLFNTIATLY
Kd (HLA-A*30:01): ≥ 20 µM | Kd (HLA-A*11:01 [5]): 0.11 µM | Kd (HLA-A*02:06): 0.254 µM | Kd (HLA-B*57:01 [6]): 0.114 µM | Kd (HLA-A*26:02 [7]): ≥ 20 µM | Kd (HLA-A*01:01 [8]): 1.02 µM | Kd (HLA-A*02:03; [10]): 1.9 µM | Kd (HLA-B*15:17; [10]): 0.0022 µM | Kd (HLA-B*18:01): 0.284 µM
